The values below come from publication PMC2946844.

Read-outs that look alike come from different tables or passages of the source.

Common to all, as to assay: SPR
(Surface plasmon resonance follows binding to a sensor surface in real time, without labels.)

The target of data set [1] is T1, 1xMBD-GFP (UniProt Q9Z2E2 1-75).
T1 sequence: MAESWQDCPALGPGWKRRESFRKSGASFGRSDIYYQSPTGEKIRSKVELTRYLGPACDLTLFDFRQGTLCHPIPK

Data set [2] concerns the target T1, 1xMBD-GFP. This is another data set of the same source.
The target in data set [3] is T1, 1xMBD-GFP. The source holds these as a separate data set.

B1: o_o_m_o/o_o_m_m (dsDNA)
DNA 1: GAAGTCAACAGGACGGACGCCGCGCAA
DNA 2: CTCTTTCTTTGCGCGGCGTCCGTCCTGTTGACTTCCTCT
modifications: strand 1 5mC21; strand 2 5mC12,5mC14
As a reminder, the Kd is the free concentration of one partner at which half of the binding sites on the other are occupied at equilibrium, for simple one-to-one binding. Higher therefore signals a looser complex. On to B1, for which, in data set [1], binding was put at a Kd of 0.156 ± 0.002 µM.

B2: m_o_o_o/m_m_o_o (dsDNA)
DNA 1: GAAGTCAACAGGACGGACGCCGCGCAA
DNA 2: B1 DNA 2
modifications: strand 1 5mC14; strand 2 5mC17,5mC21
For B2, binding in data set [1] was put at a Kd of 0.561 ± 0.006 µM.

B3: o_m_o_o/m_m_o_o (dsDNA)
DNA 1: GAAGTCAACAGGACGGACGCCGCGCAA
DNA 2: B1 DNA 2
modifications: strand 1 5mC18; strand 2 5mC17,5mC21
The molecule B3 came in with a Kd in data set [1] of 0.377 ± 0.007 µM.

B4: o_o_o_m/m_m_o_o (dsDNA)
DNA 1: GAAGTCAACAGGACGGACGCCGCGCAA
DNA 2: B1 DNA 2
modifications: strand 1 5mC23; strand 2 5mC17,5mC21
Molecule B4 yielded a Kd in data set [1] of 3.94 ± 0.06 µM.

B5: o_o_o_o/m_m_o_o (dsDNA)
DNA 1: GAAGTCAACAGGACGGACGCCGCGCAA
DNA 2: B1 DNA 2
modifications: strand 2 5mC17,5mC21
B5 came in with a dissociation constant Kd in data set [1] of 7.5 ± 0.2 µM.

B6: o_o_m_o/m_m_o_o (dsDNA)
DNA 1: GAAGTCAACAGGACGGACGCCGCGCAA
DNA 2: B1 DNA 2
modifications: strand 1 5mC21; strand 2 5mC17,5mC21
In turn, B6 showed a Kd in data set [1] of 4.97 ± 0.07 µM.

B7: o_o_o_m/o_o_m_m (dsDNA)
DNA 1: GAAGTCAACAGGACGGACGCCGCGCAA
DNA 2: B1 DNA 2
modifications: strand 1 5mC23; strand 2 5mC12,5mC14
In data set [1], B7 returned a dissociation constant Kd of 0.281 ± 0.007 µM.

B8: o_m_o/m_o_o (dsDNA)
DNA 1: TTTGCGGTCCGCTGCCCGACCC
DNA 2: GGGTCGGGCAGCGGACCGCAAA
modifications: strand 1 5mC10; strand 2 5mC17
In data set [1], B8 displayed a Kd of 8 ± 0.1 µM.

B9: o_o_m/m_m_m (dsDNA)
DNA 1: TTTGCGGTCCGCTGCCCGACCC
DNA 2: GGGTCGGGCAGCGGACCGCAAA
modifications: strand 1 5mC17; strand 2 5mC5,5mC12,5mC17
Regarding B9, the results for the dissociation constant (Kd) in data set [2] and in data set [3] were 189 ± 1 nM and 209 ± 2 nM, respectively.

B10: m_o_o*/m_o_o (dsDNA)
DNA 1: GTAGTTTGCGGTCCGCTGCCCGACC
DNA 2: GGGTCGGGCAGCGGACCGCAAA
modifications: strand 1 5mC9; strand 2 5mC17
In data set [1], B10 had a Kd of 0.87 ± 0.01 µM.

B11: o_o_o/m_o_o (dsDNA)
DNA 1: TTTGCGGTCCGCTGCCCGACCC
DNA 2: GGGTCGGGCAGCGGACCGCAAA
modifications: strand 2 5mC17
In data set [1], B11 registered a Kd of 48 ± 2 µM.

B12: m_o_o/m_o_o (dsDNA)
DNA 1: TTTGCGGTCCGCTGCCCGACCC
DNA 2: GGGTCGGGCAGCGGACCGCAAA
modifications: strand 1 5mC5; strand 2 5mC17
B12 came in with a Kd in data set [1] of 4.2 ± 0.04 µM.
